# Laboratory results taken from patent US20140087995A1 (published 2014).
# Numbered stars: 1 amine (or outer) side, 2 acyl side, 3 side chain; on linkers, the order of the positions; unused ones are H or OH. Bridge positions count the residues as written; N and C are the ends. * marks the point of attachment. C20 diacid = O=C(O)CCCCCCCCCCCCCCCCCCC(=O)*; γGlu = O=C(O)[C@H](CCC(=O)[*:2])N[*:1]; AEEA = NCCOCCOCC(=O)O
# T1: human amylin receptor (human, UniProt P30988 25-474; O60896 24-148, limits assumed)
# T1 construct: whole, on cells; Calcitonin receptor plus RAMP-3 gives the amylin 3(a) receptor; membranes of Amylin 3(a)/CRE-luc cells were used; also called hAmylin-R; hAmylinR
# T1 sequence (looked up) 1: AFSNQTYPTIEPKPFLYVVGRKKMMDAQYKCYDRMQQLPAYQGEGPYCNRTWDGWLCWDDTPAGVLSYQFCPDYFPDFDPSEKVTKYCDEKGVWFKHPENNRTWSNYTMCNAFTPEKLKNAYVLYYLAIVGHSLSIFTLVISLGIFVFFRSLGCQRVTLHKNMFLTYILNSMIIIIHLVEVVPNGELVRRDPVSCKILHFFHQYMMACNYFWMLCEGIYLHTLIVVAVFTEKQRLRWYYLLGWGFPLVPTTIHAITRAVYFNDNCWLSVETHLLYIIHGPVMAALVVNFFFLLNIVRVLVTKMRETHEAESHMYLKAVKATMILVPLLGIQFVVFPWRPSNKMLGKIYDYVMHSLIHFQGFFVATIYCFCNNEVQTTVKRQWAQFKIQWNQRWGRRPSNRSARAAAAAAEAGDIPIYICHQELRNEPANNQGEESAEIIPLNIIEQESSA
# T1 sequence (looked up) 2: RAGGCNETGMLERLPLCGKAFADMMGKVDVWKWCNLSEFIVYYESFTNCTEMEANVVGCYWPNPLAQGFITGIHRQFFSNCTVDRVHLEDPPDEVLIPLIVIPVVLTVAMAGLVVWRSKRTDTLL
# Target: T1, human amylin receptor
# Assay: SPA competition binding, displacement of 125I-rat amylin from membranes with human amylin 3(a) receptor (Assay V)
# Procedure: The binding assay was performed using scintillation proximity assay (SPA) beads (RPNQ0001) from PerkinElmer and cell membranes from the Amylin 3(a)/CRE-luc cells (as described in Assay (II)) were used. Membranes were prepared in the following way; the cells were rinsed with PBS and incubated with Versene for approximately 5 min before harvesting. The cells were flushed with PBS and the cell-suspension was centrifuged for 5 min at 1000 rpm. Cells were homogenized (ultrathurrax) in a buffer containing 20 mM Na-HEPES and 10 mM EDTA (pH 7.4) and centrifuged at 20.000 rpm for 15 min. The resulting pellet was resuspended, homogenized and centrifuged (20.000 rpm, 15 min) in a buffer containing 20 mM Na-HEPES and 0.1 mM EDTA (pH 7.4, buffer 2). The resulting pellet was resuspended in buffer 2 and protein concentration was measured (BCA protein Assay, Pierce). The homogenate was kept cold during the whole procedure. The membranes were kept at −80° C. until use. The assay was performed in a 384 well Optiplate (PerkinElmer) in a total volume of 40 ul. Membranes were mixed with SPA beads. Final concentration of membranes 35 ng/μL final and SPA beads was 0.05 mg/well. Test-compounds were dissolved in DMSO and further diluted in assay buffer (50 mM Hepes, pH 7.4, 1 mM CaCl2, 5 mM MgCl₂, 0.1% OA and 0.02% Tween20). […] The final mixture was incubated with shaking at 400 rpm for 120 min at 25° C. prior to centrifugation (1500 rpm, 10 min). Samples were analyzed on TopCounter™ (Packard). The IC₅₀ was calculated using (one site binding competition analysis) GraphPad Prism5 as a measure of receptor affinity.
row,IC50,Binder
1,0.597 nM,"{C20 diacid-γGlu-γGlu}-KCNTATCATQRLAEFLRHSSPNFGAIPSSTNVGSNTY-NH2 (disulfide 2-7; SMILES CC[C@H](C)[C@H](NC(=O)[C@H](C)NC(=O)CNC(=O)[C@H](Cc1ccccc1)NC(=O)[C@H](CC(N)=O)NC(=O)[C@@H]1CCCN1C(=O)[C@H](CO)NC(=O)[C@H](CO)NC(=O)[C@H](Cc1c[nH]cn1)NC(=O)[C@H](CCCNC(=N)N)NC(=O)[C@H](CC(C)C)NC(=O)[C@H](Cc1ccccc1)NC(=O)[C@H](CCC(=O)O)NC(=O)[C@H](C)NC(=O)[C@H](CC(C)C)NC(=O)[C@H](CCCNC(=N)N)NC(=O)[C@H](CCC(N)=O)NC(=O)[C@@H](NC(=O)[C@H](C)NC(=O)[C@@H]1CSSC[C@H](NC(=O)[C@H](CCCCN)NC(=O)CC[C@H](NC(=O)CC[C@H](NC(=O)CCCCCCCCCCCCCCCCCCC(=O)O)C(=O)O)C(=O)O)C(=O)N[C@@H](CC(N)=O)C(=O)N[C@@H]([C@@H](C)O)C(=O)N[C@@H](C)C(=O)N[C@@H]([C@@H](C)O)C(=O)N1)[C@@H](C)O)C(=O)N1CCC[C@H]1C(=O)N[C@@H](CO)C(=O)N[C@@H](CO)C(=O)N[C@H](C(=O)N[C@@H](CC(N)=O)C(=O)N[C@H](C(=O)NCC(=O)N[C@@H](CO)C(=O)N[C@@H](CC(N)=O)C(=O)N[C@H](C(=O)N[C@@H](Cc1ccc(O)cc1)C(N)=O)[C@@H](C)O)C(C)C)[C@@H](C)O, also called 14E, 17R, 21P, 27P)"
2,0.556 nM,"KCNTATCATQRLAEFLRHSSPNFGAIPSSTNVGSNTY (C20 diacid-gGlu-2xOEG on the alpha amino group of the N-terminal residue; disulfide Cys2-Cys7 and C-terminal amide as in human amylin, also called 14E, 17R, 21P, 27P)"
3,0.082 nM,"{C20 diacid-γGlu}-KCNTATCATQRLADFLRHSSPNFGAIPSSTNVGSNTP-NH2 (disulfide 2-7; SMILES CC[C@H](C)[C@H](NC(=O)[C@H](C)NC(=O)CNC(=O)[C@H](Cc1ccccc1)NC(=O)[C@H](CC(N)=O)NC(=O)[C@@H]1CCCN1C(=O)[C@H](CO)NC(=O)[C@H](CO)NC(=O)[C@H](Cc1c[nH]cn1)NC(=O)[C@H](CCCNC(=N)N)NC(=O)[C@H](CC(C)C)NC(=O)[C@H](Cc1ccccc1)NC(=O)[C@H](CC(=O)O)NC(=O)[C@H](C)NC(=O)[C@H](CC(C)C)NC(=O)[C@H](CCCNC(=N)N)NC(=O)[C@H](CCC(N)=O)NC(=O)[C@@H](NC(=O)[C@H](C)NC(=O)[C@@H]1CSSC[C@H](NC(=O)[C@H](CCCCN)NC(=O)CC[C@H](NC(=O)CCCCCCCCCCCCCCCCCCC(=O)O)C(=O)O)C(=O)N[C@@H](CC(N)=O)C(=O)N[C@@H]([C@@H](C)O)C(=O)N[C@@H](C)C(=O)N[C@@H]([C@@H](C)O)C(=O)N1)[C@@H](C)O)C(=O)N1CCC[C@H]1C(=O)N[C@@H](CO)C(=O)N[C@@H](CO)C(=O)N[C@H](C(=O)N[C@@H](CC(N)=O)C(=O)N[C@H](C(=O)NCC(=O)N[C@@H](CO)C(=O)N[C@@H](CC(N)=O)C(=O)N[C@H](C(=O)N1CCC[C@H]1C(N)=O)[C@@H](C)O)C(C)C)[C@@H](C)O, also called 14D, 17R, 21P, 27P, 37P)"
4,0.665 nM,"KCNTATCATQRLANFLRHSSPNFGAIPSSTNVGRNTY (C20 diacid-gGlu on the alpha amino group of the N-terminal residue; disulfide Cys2-Cys7 and C-terminal amide as in human amylin, also called 17R, 21P, 27P, 34R) [N^α1-[(4S)-4-carboxy-4-(19-carboxynonadecanoylamino)butanoyl]-[Arg17,Pro21,Pro27,Arg34]-h-amylin]"
5,0.217 nM,"{C20 diacid-γGlu-AEEA-AEEA}-KCNTATCATQRLAEFLRHSSPNFGAIPSSTNVGSNTP-NH2 (disulfide 2-7; SMILES CC[C@H](C)[C@H](NC(=O)[C@H](C)NC(=O)CNC(=O)[C@H](Cc1ccccc1)NC(=O)[C@H](CC(N)=O)NC(=O)[C@@H]1CCCN1C(=O)[C@H](CO)NC(=O)[C@H](CO)NC(=O)[C@H](Cc1c[nH]cn1)NC(=O)[C@H](CCCNC(=N)N)NC(=O)[C@H](CC(C)C)NC(=O)[C@H](Cc1ccccc1)NC(=O)[C@H](CCC(=O)O)NC(=O)[C@H](C)NC(=O)[C@H](CC(C)C)NC(=O)[C@H](CCCNC(=N)N)NC(=O)[C@H](CCC(N)=O)NC(=O)[C@@H](NC(=O)[C@H](C)NC(=O)[C@@H]1CSSC[C@H](NC(=O)[C@H](CCCCN)NC(=O)COCCOCCNC(=O)COCCOCCNC(=O)CC[C@H](NC(=O)CCCCCCCCCCCCCCCCCCC(=O)O)C(=O)O)C(=O)N[C@@H](CC(N)=O)C(=O)N[C@@H]([C@@H](C)O)C(=O)N[C@@H](C)C(=O)N[C@@H]([C@@H](C)O)C(=O)N1)[C@@H](C)O)C(=O)N1CCC[C@H]1C(=O)N[C@@H](CO)C(=O)N[C@@H](CO)C(=O)N[C@H](C(=O)N[C@@H](CC(N)=O)C(=O)N[C@H](C(=O)NCC(=O)N[C@@H](CO)C(=O)N[C@@H](CC(N)=O)C(=O)N[C@H](C(=O)N1CCC[C@H]1C(N)=O)[C@@H](C)O)C(C)C)[C@@H](C)O, also called 14E, 17R, 21P, 27P, 37P)"
6,0.61 nM,"{C20 diacid-γGlu}-KCNTATCATQRLANFLRHSSPNFGAIPSSTPVGSETY-NH2 (disulfide 2-7; SMILES CC[C@H](C)[C@H](NC(=O)[C@H](C)NC(=O)CNC(=O)[C@H](Cc1ccccc1)NC(=O)[C@H](CC(N)=O)NC(=O)[C@@H]1CCCN1C(=O)[C@H](CO)NC(=O)[C@H](CO)NC(=O)[C@H](Cc1c[nH]cn1)NC(=O)[C@H](CCCNC(=N)N)NC(=O)[C@H](CC(C)C)NC(=O)[C@H](Cc1ccccc1)NC(=O)[C@H](CC(N)=O)NC(=O)[C@H](C)NC(=O)[C@H](CC(C)C)NC(=O)[C@H](CCCNC(=N)N)NC(=O)[C@H](CCC(N)=O)NC(=O)[C@@H](NC(=O)[C@H](C)NC(=O)[C@@H]1CSSC[C@H](NC(=O)[C@H](CCCCN)NC(=O)CC[C@H](NC(=O)CCCCCCCCCCCCCCCCCCC(=O)O)C(=O)O)C(=O)N[C@@H](CC(N)=O)C(=O)N[C@@H]([C@@H](C)O)C(=O)N[C@@H](C)C(=O)N[C@@H]([C@@H](C)O)C(=O)N1)[C@@H](C)O)C(=O)N1CCC[C@H]1C(=O)N[C@@H](CO)C(=O)N[C@@H](CO)C(=O)N[C@H](C(=O)N1CCC[C@H]1C(=O)N[C@H](C(=O)NCC(=O)N[C@@H](CO)C(=O)N[C@@H](CCC(=O)O)C(=O)N[C@H](C(=O)N[C@@H](Cc1ccc(O)cc1)C(N)=O)[C@@H](C)O)C(C)C)[C@@H](C)O, also called 17R, 21P, 27P, 31P, 35E)"
7,0.549 nM,"KCNTATCATQRLANFLRHSSPNFGAIPSSTNVGHNTY (C20 diacid-gGlu on the alpha amino group of the N-terminal residue; disulfide Cys2-Cys7 and C-terminal amide as in human amylin, also called 17R, 21P, 27P, 34H) [N^α1-[(4S)-4-carboxy-4-(19-carboxynonadecanoylamino)butanoyl]-[Arg17,Pro21,Pro27,His34]-h-amylin]"
8,0.577 nM,"{C20 diacid-γGlu}-KCNTATCATQRLANFLRHSSPNFGAIPSSTNVGPETY-NH2 (disulfide 2-7; SMILES CC[C@H](C)[C@H](NC(=O)[C@H](C)NC(=O)CNC(=O)[C@H](Cc1ccccc1)NC(=O)[C@H](CC(N)=O)NC(=O)[C@@H]1CCCN1C(=O)[C@H](CO)NC(=O)[C@H](CO)NC(=O)[C@H](Cc1c[nH]cn1)NC(=O)[C@H](CCCNC(=N)N)NC(=O)[C@H](CC(C)C)NC(=O)[C@H](Cc1ccccc1)NC(=O)[C@H](CC(N)=O)NC(=O)[C@H](C)NC(=O)[C@H](CC(C)C)NC(=O)[C@H](CCCNC(=N)N)NC(=O)[C@H](CCC(N)=O)NC(=O)[C@@H](NC(=O)[C@H](C)NC(=O)[C@@H]1CSSC[C@H](NC(=O)[C@H](CCCCN)NC(=O)CC[C@H](NC(=O)CCCCCCCCCCCCCCCCCCC(=O)O)C(=O)O)C(=O)N[C@@H](CC(N)=O)C(=O)N[C@@H]([C@@H](C)O)C(=O)N[C@@H](C)C(=O)N[C@@H]([C@@H](C)O)C(=O)N1)[C@@H](C)O)C(=O)N1CCC[C@H]1C(=O)N[C@@H](CO)C(=O)N[C@@H](CO)C(=O)N[C@H](C(=O)N[C@@H](CC(N)=O)C(=O)N[C@H](C(=O)NCC(=O)N1CCC[C@H]1C(=O)N[C@@H](CCC(=O)O)C(=O)N[C@H](C(=O)N[C@@H](Cc1ccc(O)cc1)C(N)=O)[C@@H](C)O)C(C)C)[C@@H](C)O, also called 17R, 21P, 27P, 34P, 35E)"
